In PMC4374921, “Inhibition of Type VI Secretion by an Anti-TssM Llama Nanobody” (PLoS ONE, 2015) one finds Kd, koff and kon data, which are given here for 3 molecules.

For orientation: koff means a measure of how fast the partners let go of each other. By kon is commonly meant the rate constant with which the complex forms.

The chains are these.
T1: periplasmic domain of the EAEC TssM protein (enteroaggregative Escherichia coli …)
T1 construct: TssM of enteroaggregative Escherichia coli (EAEC), a 1129-amino-acid inner membrane protein; periplasmic domain, amino-acids 386-1129; also called TssM periplasmic domain; source: recombinant, produced and purified as described previously [11]
T1 chain: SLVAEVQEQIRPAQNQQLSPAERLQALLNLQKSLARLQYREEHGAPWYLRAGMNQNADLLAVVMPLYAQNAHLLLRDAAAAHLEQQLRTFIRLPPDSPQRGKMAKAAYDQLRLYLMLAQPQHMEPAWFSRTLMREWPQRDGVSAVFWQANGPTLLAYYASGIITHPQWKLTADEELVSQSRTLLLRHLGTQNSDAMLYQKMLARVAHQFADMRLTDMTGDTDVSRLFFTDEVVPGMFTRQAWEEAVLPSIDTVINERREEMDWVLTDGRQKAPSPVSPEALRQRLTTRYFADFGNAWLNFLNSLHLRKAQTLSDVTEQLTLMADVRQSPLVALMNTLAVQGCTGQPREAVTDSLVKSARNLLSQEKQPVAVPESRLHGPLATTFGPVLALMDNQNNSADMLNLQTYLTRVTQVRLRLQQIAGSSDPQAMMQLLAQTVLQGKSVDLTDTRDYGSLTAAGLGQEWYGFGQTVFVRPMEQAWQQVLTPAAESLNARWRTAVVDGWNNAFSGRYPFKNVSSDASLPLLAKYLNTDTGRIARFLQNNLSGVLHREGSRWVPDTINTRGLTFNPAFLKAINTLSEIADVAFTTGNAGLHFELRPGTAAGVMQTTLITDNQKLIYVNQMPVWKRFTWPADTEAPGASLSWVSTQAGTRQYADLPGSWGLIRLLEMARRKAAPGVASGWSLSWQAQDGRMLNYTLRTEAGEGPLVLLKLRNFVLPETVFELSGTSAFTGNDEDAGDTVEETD

B1: anti-TssM nanobody nb42 (VHH)
VHH: DVQLVESGGGLVQAGGSLRLSCAASGFTFGDYAIGWFRQAPGKEREGVSCFSNSDGSTYYADSVKGRFTSSSDNAKNTQYLQMNSLKPEDTAIYYCAAVKAQGIYCTEYIIGPYGMDYWGKGTLVTVSS
notes: very similar to nb25, CDR3 identical to that of nb25; No structure was solved for nb42; also called nb25 variant nb42; source: E. coli WK6 periplasm (pHEN6, pelB signal peptide), purified (Ni-NTA, Superdex 75)
B2: anti-TssM nanobody nb02 (VHH)
VHH: DVQLVESGGGLVHPGGSLRLSCAASGRTFSDYALGWFRQAPGKDREFVAAISWSGGSTYYADSVQGRFTISRDNDKNSVYLQMNSLKPEDTAVYYCAADKYYTGPGGESVYDYWGRGTQVTVSS
notes: llama VHH raised against TssMp; CDR3 of 14 residues; source: E. coli WK6 periplasm (pHEN6, pelB signal peptide), purified (Ni-NTA, Superdex 75)
B3: anti-TssM nanobody nb25 (VHH)
VHH: QVQLVESGGGLVQAGGSLRLSCAASGFTFEDYAIGWFRQAPGKEREGVSCISNLDGSTYYPDSVKGRFTASSDKAKNMVYLQMNSLKPEDTAVYYCAAVNAQGIYCTDYIIGPYGMDYWGKGTQVTVSS
notes: llama VHH raised against TssMp; CDR3 of 19 residues, disulfide bridge between Cys-106 and CDR2 Cys-50; source: E. coli WK6 periplasm (pHEN6, pelB signal peptide), purified (Ni-NTA, Superdex 75)

For this assay, the target named is T1, periplasmic domain of the EAEC TssM …. Briefly: SPR; nanobodies covalently linked to a CM5 chip, TssMp injected (1.95 to 250 nM); Biacore X100; multi-cycle kinetics; regeneration with glycine-HCl pH 2.5; apparent KDs. To be noted: both partners purified. (In general: Surface plasmon resonance follows binding to a sensor surface in real time, without labels.)
For B1, the Kd was determined as 1.76 ± 0.08 nM, the koff is 0.00036 s⁻¹ and the kon worked out at 204000 M⁻¹ s⁻¹.

Take B2: the Kd is 66.8 ± 2.5 nM, the koff came to 0.0402 s⁻¹ and the association rate constant (kon) amounted to 602000 M⁻¹ s⁻¹.

As for B3, the Kd was 1.61 ± 0.05 nM, the koff was 0.00056 s⁻¹ and the on-rate constant (kon) is 350000 M⁻¹ s⁻¹.
